The supplement of paper PMC9112550, “Optimization of the antimicrobial peptide Bac7 by deep mutational scanning” (BMC Biology, 2022)

System: Escherichia coli TOP10
Experiment: shrunken log2 fold change of peptide-encoding DNA abundance (4.5 h post-induction vs induction); higher = less antimicrobial activity (less host growth inhibition)
Details: time post-induction: 4.5 h; library: site-saturation at positions 5, 18, 19, 20
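Note: peptides expressed intracellularly from a pBAD plasmid library in pooled LB shake-flask culture, induced with 0.3% L-arabinose, DNA abundance read by NGS, three biological replicates, DESeq2 with apeglm shrinkage.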

Sequence	shrunken log2 fold change
RRIRSRPPRLPRPRPRPYTHPRP	-1.3
RRIRSRPPRLPRPRPRPYTLPRP	-0.146
RRIRSRPPRLPRPRPRPYTRPRP	-0.304
RRIRSRPPRLPRPRPRPYVNPRP	-0.283
RRIRSRPPRLPRPRPRPYVVPRP	-0.314
RRIRTRPPRLPRPRPRPAARPRP	0.374
RRIRTRPPRLPRPRPRPACMPRP	0.0444
RRIRTRPPRLPRPRPRPAEHPRP	-0.0944
RRIRTRPPRLPRPRPRPAEWPRP	0.0396
RRIRTRPPRLPRPRPRPAFNPRP	-0.121
RRIRTRPPRLPRPRPRPAGHPRP	-0.0189
RRIRTRPPRLPRPRPRPAIKPRP	0.957
RRIRTRPPRLPRPRPRPAIWPRP	0.238
RRIRTRPPRLPRPRPRPANCPRP	-0.0321
RRIRTRPPRLPRPRPRPAPCPRP	0.18
RRIRTRPPRLPRPRPRPAPEPRP	0.24
RRIRTRPPRLPRPRPRPAPMPRP	0.202
RRIRTRPPRLPRPRPRPASSPRP	-0.362
RRIRTRPPRLPRPRPRPATNPRP	-0.0241
RRIRTRPPRLPRPRPRPAVEPRP	-0.011
RRIRTRPPRLPRPRPRPAYCPRP	-0.0119
RRIRTRPPRLPRPRPRPCCRPRP	0.0338
RRIRTRPPRLPRPRPRPCEIPRP	0.0393
RRIRTRPPRLPRPRPRPCHNPRP	-0.0285
RRIRTRPPRLPRPRPRPCIHPRP	-0.11

Sequence	shrunken log2 fold change
RRIRTRPPRLPRPRPRPCKMPRP	-0.47
RRIRTRPPRLPRPRPRPCLYPRP	-0.342
RRIRTRPPRLPRPRPRPCQPPRP	-0.387
RRIRTRPPRLPRPRPRPCRKPRP	-0.0644
RRIRTRPPRLPRPRPRPCSIPRP	-0.472
RRIRTRPPRLPRPRPRPCSSPRP	-0.0634
RRIRTRPPRLPRPRPRPCSWPRP	0.0291
RRIRTRPPRLPRPRPRPCTDPRP	-0.502
RRIRTRPPRLPRPRPRPCTYPRP	-0.326
RRIRTRPPRLPRPRPRPCVEPRP	-0.0492
RRIRTRPPRLPRPRPRPCVVPRP	-0.0223
RRIRTRPPRLPRPRPRPCWEPRP	0.203
RRIRTRPPRLPRPRPRPCWMPRP	-0.259
RRIRTRPPRLPRPRPRPDCEPRP	0.0084
RRIRTRPPRLPRPRPRPDCSPRP	-0.239
RRIRTRPPRLPRPRPRPDGDPRP	0.052
RRIRTRPPRLPRPRPRPDGMPRP	0.0749
RRIRTRPPRLPRPRPRPDLAPRP	0.132
RRIRTRPPRLPRPRPRPDMNPRP	-0.0432
RRIRTRPPRLPRPRPRPDNIPRP	-0.38
RRIRTRPPRLPRPRPRPDRHPRP	-0.143
RRIRTRPPRLPRPRPRPDTWPRP	0.0221
RRIRTRPPRLPRPRPRPDYFPRP	-0.153
RRIRTRPPRLPRPRPRPDYNPRP	-0.0768
RRIRTRPPRLPRPRPRPEAEPRP	0.0438

Sequence	shrunken log2 fold change
RRIRTRPPRLPRPRPRPEAFPRP	0.0195
RRIRTRPPRLPRPRPRPEAGPRP	0.286
RRIRTRPPRLPRPRPRPEAKPRP	-0.0276
RRIRTRPPRLPRPRPRPECFPRP	0.146
RRIRTRPPRLPRPRPRPECKPRP	0.165
RRIRTRPPRLPRPRPRPEFCPRP	0.146
RRIRTRPPRLPRPRPRPEGPPRP	0.285
RRIRTRPPRLPRPRPRPEIDPRP	0.0426
RRIRTRPPRLPRPRPRPEMYPRP	-0.012
RRIRTRPPRLPRPRPRPEQSPRP	0.0803
RRIRTRPPRLPRPRPRPEREPRP	-0.00458
RRIRTRPPRLPRPRPRPERIPRP	-0.18
RRIRTRPPRLPRPRPRPESAPRP	0.0458
RRIRTRPPRLPRPRPRPETAPRP	0.4
RRIRTRPPRLPRPRPRPETIPRP	-0.0605
RRIRTRPPRLPRPRPRPEVFPRP	0.146
RRIRTRPPRLPRPRPRPEWEPRP	0.0583
RRIRTRPPRLPRPRPRPEWQPRP	0.495
RRIRTRPPRLPRPRPRPEWVPRP	0.457
RRIRTRPPRLPRPRPRPEYQPRP	0.066
RRIRTRPPRLPRPRPRPEYSPRP	-0.0382
RRIRTRPPRLPRPRPRPFENPRP	-0.0132
RRIRTRPPRLPRPRPRPFFKPRP	-0.303
RRIRTRPPRLPRPRPRPFFRPRP	0.234
RRIRTRPPRLPRPRPRPFHVPRP	-0.0683

Sequence	shrunken log2 fold change
RRIRTRPPRLPRPRPRPFLVPRP	-0.404
RRIRTRPPRLPRPRPRPFMAPRP	-0.0759
RRIRTRPPRLPRPRPRPFMDPRP	0.108
RRIRTRPPRLPRPRPRPFMSPRP	0.0219
RRIRTRPPRLPRPRPRPFNCPRP	-0.038
RRIRTRPPRLPRPRPRPFNNPRP	-0.318
RRIRTRPPRLPRPRPRPFNVPRP	-0.029
RRIRTRPPRLPRPRPRPFRFPRP	-0.00476
RRIRTRPPRLPRPRPRPFRGPRP	-0.175
RRIRTRPPRLPRPRPRPFRKPRP	-0.0396
RRIRTRPPRLPRPRPRPFSEPRP	-0.0338
RRIRTRPPRLPRPRPRPFTKPRP	-0.0107
RRIRTRPPRLPRPRPRPFYMPRP	-0.369
RRIRTRPPRLPRPRPRPFYSPRP	-0.701
RRIRTRPPRLPRPRPRPGAQPRP	0.283
RRIRTRPPRLPRPRPRPGCFPRP	0.0805
RRIRTRPPRLPRPRPRPGCLPRP	0.172
RRIRTRPPRLPRPRPRPGCMPRP	-0.0219
RRIRTRPPRLPRPRPRPGCTPRP	-0.0907
RRIRTRPPRLPRPRPRPGEKPRP	-0.0135
RRIRTRPPRLPRPRPRPGEYPRP	-0.194
RRIRTRPPRLPRPRPRPGFEPRP	0.613
RRIRTRPPRLPRPRPRPGFRPRP	-0.0537
RRIRTRPPRLPRPRPRPGGGPRP	0.759
RRIRTRPPRLPRPRPRPGGLPRP	-0.0407

Sequence	shrunken log2 fold change
RRIRTRPPRLPRPRPRPGKWPRP	-0.192
RRIRTRPPRLPRPRPRPGLHPRP	-0.102
RRIRTRPPRLPRPRPRPGLYPRP	0.194
RRIRTRPPRLPRPRPRPGMMPRP	-0.211
RRIRTRPPRLPRPRPRPGNEPRP	-0.000989
RRIRTRPPRLPRPRPRPGPCPRP	0.219
RRIRTRPPRLPRPRPRPGPDPRP	-0.228
RRIRTRPPRLPRPRPRPGPIPRP	0.316
RRIRTRPPRLPRPRPRPGQCPRP	0.013
RRIRTRPPRLPRPRPRPGQDPRP	-0.102
RRIRTRPPRLPRPRPRPGQTPRP	-0.0115
RRIRTRPPRLPRPRPRPGRQPRP	0.0723
RRIRTRPPRLPRPRPRPGSHPRP	-0.336
RRIRTRPPRLPRPRPRPGSNPRP	-0.415
RRIRTRPPRLPRPRPRPGTFPRP	-0.116
RRIRTRPPRLPRPRPRPGTTPRP	-0.342
RRIRTRPPRLPRPRPRPGTWPRP	-0.0246
RRIRTRPPRLPRPRPRPHALPRP	0.0575
RRIRTRPPRLPRPRPRPHAVPRP	0.0205
RRIRTRPPRLPRPRPRPHDAPRP	-0.0483
RRIRTRPPRLPRPRPRPHDHPRP	-0.257
RRIRTRPPRLPRPRPRPHDSPRP	-0.229
RRIRTRPPRLPRPRPRPHDTPRP	-0.213
RRIRTRPPRLPRPRPRPHEMPRP	0.0124
RRIRTRPPRLPRPRPRPHFFPRP	-0.161

Sequence	shrunken log2 fold change
RRIRTRPPRLPRPRPRPHFHPRP	-0.589
RRIRTRPPRLPRPRPRPHFLPRP	-0.218
RRIRTRPPRLPRPRPRPHFYPRP	-0.224
RRIRTRPPRLPRPRPRPHGMPRP	-0.157
RRIRTRPPRLPRPRPRPHGPPRP	0.157
RRIRTRPPRLPRPRPRPHHCPRP	-0.12
RRIRTRPPRLPRPRPRPHHFPRP	-0.0421
RRIRTRPPRLPRPRPRPHHTPRP	-0.474
RRIRTRPPRLPRPRPRPHKMPRP	-0.0381
RRIRTRPPRLPRPRPRPHKNPRP	-0.415
RRIRTRPPRLPRPRPRPHLDPRP	-0.175
RRIRTRPPRLPRPRPRPHMDPRP	-0.422
RRIRTRPPRLPRPRPRPHMRPRP	0.161
RRIRTRPPRLPRPRPRPHPFPRP	-0.00172
RRIRTRPPRLPRPRPRPHPIPRP	-0.165
RRIRTRPPRLPRPRPRPHQFPRP	-0.738
RRIRTRPPRLPRPRPRPHRGPRP	-0.154
RRIRTRPPRLPRPRPRPHRYPRP	-0.604
RRIRTRPPRLPRPRPRPHSVPRP	0.0184
RRIRTRPPRLPRPRPRPHTLPRP	-0.792
RRIRTRPPRLPRPRPRPHVGPRP	0.0439
RRIRTRPPRLPRPRPRPHVLPRP	-0.193
RRIRTRPPRLPRPRPRPHVNPRP	-0.0758
RRIRTRPPRLPRPRPRPHVTPRP	-0.15
RRIRTRPPRLPRPRPRPHWGPRP	0.229
